Laboratory results published in patent US20230338477A1 (published 2023).

B1: 69331 (antibody, V domains shown)
VH: QVQLVESGGGVVQPGRSLRLSCIASGFTFSVYGIHWVRQAPGKGLEWMAVISHDGNIKHYADSVKGRFTISRDNSKNTLYLQINSLRTEDTAVYYCAKDTWNSLDTFDIWGQGTMVTVSS
VL: DIQLTQSPSSLSASVGDRVTITCWASQGISSYLAWYQQKPGKAPKLLIYAASTLQSGVPSRFSGSGSGTEFTLTISSLQPEDFATYYCQQLNSYPLTFGGGTKVEIK
notes: Anti-hTfR antibody of the initial screen; only variable domains are tied to it
B2: 69326 (antibody, V domains shown)
VH: EVQLVESGGGLVQPGGSLRLSCAVSGFIFSSYEMNWVRQAPGKGLEWVSYISSSGSTIFYADSVKGRFTISRDNAKNSLYLQMNSLRAEDTAVYYCVSGVVLFDVWGQGTMVTVSS
VL: EIVMTQSPATLSVSPGERATLSCRASQSVSSNFAWYQQKPGQAPRLLIYSASSRATGIPVRFSGSGSGTEFTLTISSLQSEDFAVYYCQQYNIWPRTFGQGTKVEIK
notes: as for B1
B3: 69340 (antibody, V domains shown)
VH: EVQLVESGGGLVQPGRSLRLSCAASGFTFDDKAMHWVRQVPGKGLEWISGISWNSGTIGYADSVKGRFIISRDNAKNSLYLQMNSLRAEDTALYYCAKDGDTSGWYWYGLDVWGQGTTVTVSS
VL: EIVLTQSPATLSLSPGERATLSCRASQSVSSYLAWYQQKPGQAPRLLIHDVSNRATGIPARFSGSGSGTDFTLTISSLEPEDFVVYYCQQRSDWPITFGQGTRLEIK
notes: as for B1
B4: 69332 (antibody, V domains shown)
VH: QVTLRESGPALVKPSQTLTLTCTFSGFSLNTYGMFVSWIRQPPGKALEWLAHIHWDDDKYYSTSLKTRLTISKDTSKNQVVLTMTNMDPVDTATYYCARGHNNLNYIIHWGQGTLVTVSS
VL: AIQMTQSPSSLSASVGDRVTITCRASQGIRNDLGWYQQKPGKAPKLLIYAASTLQSGVPSRFSGSGSGTDFTLTISSLQPEDFATYYCLQDYNYPFTFGPGTKVDIK
notes: as for B1
B5: 69348 (antibody, V domains shown)
VH: QVQLVESGGGVVQPGRSLRLSCAASGFTFTTYGMHWVRQAPGKGLEWVAVIWYDGSNKYYGDSVKGRFTISRDNSKNTLYLQMNSLRVDDTAVYYCTRTHGYTRSSDGFDYWGQGTLVTVSS
VL: DIQMTQSPSSLSASVGDRVTITCRASQSIRNVLGWFQQKPGKAPQRLIYAASSLQSGVPSRFSGSGSGTEFTLTISSLQPEDFATYYCLQHNFYPLTFGGGTKVEIK
notes: as for B1

Molecular target: T1, human transferrin receptor 1 (hTfR) (human, UniProt P02786 89-760, limits assumed)
T1 construct: also called TFRC; transferrin receptor protein 1
T1 sequence (P02786 89-760 limits assumed): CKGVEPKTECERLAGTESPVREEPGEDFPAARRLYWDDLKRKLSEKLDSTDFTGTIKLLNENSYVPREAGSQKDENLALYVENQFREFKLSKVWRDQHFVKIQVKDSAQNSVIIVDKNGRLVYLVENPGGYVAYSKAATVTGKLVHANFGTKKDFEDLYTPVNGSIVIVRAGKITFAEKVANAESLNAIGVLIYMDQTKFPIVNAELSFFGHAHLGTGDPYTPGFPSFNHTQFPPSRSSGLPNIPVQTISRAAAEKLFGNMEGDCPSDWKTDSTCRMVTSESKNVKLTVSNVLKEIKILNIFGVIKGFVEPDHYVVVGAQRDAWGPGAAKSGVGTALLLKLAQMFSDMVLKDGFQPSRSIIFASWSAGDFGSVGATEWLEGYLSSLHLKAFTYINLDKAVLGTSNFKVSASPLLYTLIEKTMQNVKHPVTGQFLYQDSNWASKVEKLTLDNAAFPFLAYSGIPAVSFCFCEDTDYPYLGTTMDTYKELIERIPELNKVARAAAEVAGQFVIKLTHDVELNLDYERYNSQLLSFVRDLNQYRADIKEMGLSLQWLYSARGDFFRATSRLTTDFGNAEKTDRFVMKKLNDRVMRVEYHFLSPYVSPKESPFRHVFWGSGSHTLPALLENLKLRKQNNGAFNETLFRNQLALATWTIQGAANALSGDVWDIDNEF
Experiment: in vitro binding screen, method not described

Binding result, binds:
B1, B2, B3, B4, B5
